As a reminder, the Kd is a measure of binding affinity in units of concentration. What is called koff is the first-order rate constant of dissociation. As a reminder, the kon is a measure of how fast the partners come together.

One test addresses T1, human FcRn (Example 10) (human, UniProt P55899 24-297; P61769 21-119, limits assumed).
T1 construct: Construct not described; Beta-2-microglobulin is not mentioned; also called recombinant FcRn proteins
As to the kind of experiment: SPR, FcRn immobilized on CM5, Steady State.

For test [1], the target named is T2, Human NKp46 recombinant proteins (human, UniProt O76036 22-258).
T2 construct: also called recombinant human NKp46 proteins
Kind of test: SPR, bispecific captured on Protein-A chip, human NKp46 injected, 1:1 kinetic model. The procedure:
SPR measurements were performed on a Biacore T100 apparatus (Biacore GE Healthcare) at 25° C. In all Biacore experiments HBS-EP+(Biacore GE Healthcare) and NaOH 10 mM served as running buffer and regeneration buffer respectively. Sensorgrams were analyzed with Biacore T100 Evaluation software. Protein-A was purchase from (GE Healthcare). Human NKp46 recombinant proteins were cloned, produced and purified at Innate Pharma.
Protein-A proteins were immobilized covalently to carboxyl groups in the dextran layer on a Sensor Chip CM5. The chip surface was activated with EDC/NHS (N-ethyl-N′-(3-dimethylaminopropyl) carbodiimidehydrochloride and N-hydroxysuccinimide (Biacore GE Healthcare)). Protein-A was diluted to 10 μg/ml in coupling buffer (10 mM acetate, pH 5.6) and injected until the appropriate immobilization level was reached (i.e. 2000 RU). Deactivation of the remaining activated groups was performed using 100 mM ethanolamine pH 8 (Biacore GE Healthcare).
Monovalent affinity study was done following a regular Capture-Kinetic protocol recommended by the manufacturer (Biacore GE Healthcare kinetic wizard). Seven serial dilutions of human NKp46 recombinant proteins, ranging from 6.25 to 400 nM were sequentially injected over the captured Bi-Specific antibodies and allowed to dissociate for 10 min before regeneration. The entire sensorgram sets were fitted using the 1:1 kinetic binding model.

T1 sequence (P55899 24-297 limits assumed, form in doubt, chain 1 of 2): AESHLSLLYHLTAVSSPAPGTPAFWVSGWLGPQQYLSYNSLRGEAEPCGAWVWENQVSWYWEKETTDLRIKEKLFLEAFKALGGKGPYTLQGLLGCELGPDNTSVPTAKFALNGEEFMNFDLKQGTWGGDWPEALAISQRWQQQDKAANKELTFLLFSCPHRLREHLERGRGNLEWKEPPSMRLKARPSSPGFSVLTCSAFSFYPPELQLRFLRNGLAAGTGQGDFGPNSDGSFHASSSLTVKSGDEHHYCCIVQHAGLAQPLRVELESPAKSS
T1 sequence (P61769 21-119 limits assumed, form in doubt, chain 2 of 2): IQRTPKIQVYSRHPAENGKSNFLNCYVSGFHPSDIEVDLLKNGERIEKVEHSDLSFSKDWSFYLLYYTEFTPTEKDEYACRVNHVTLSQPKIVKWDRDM

B1: CD19-F11-NKp46-3 (bispecific antibody)
chain 1: DIQLTQSPASLAVSLGQRATISCKASQSVDYDGDSYLNWYQQIPGQPPKLLIYDASNLVSGIPPRFSGSGSGTDFTLNIHPVEKVDAATYHCQQSTEDPWTFGGGTKLEIKGGGGSGGGGSGGGGSQVQLQQSGAELVRPGSSVKISCKASGYAFSSYWMNWVKQRPGQGLEWIGQIWPGDGDTNYNGKFKGKATLTADESSSTAYMQLSSLASEDSAVYFCARRETTTVGRYYYAMDYWGQGTTVTVSSGGGSSAPELLGGPSVFLFPPKPKDTLMISRTPEVTCVVVDVSHEDPEVKFNWYVDGVEVHNAKTKPREEQYSSTYRVVSVLTVLHQDWLNGKEYKCKVSNKALPAPIEKTISKAKGQPREPQVYTLPPSREEMTKNQVSLTCLVKGFYPSDIAVEWESNGQPENNYKTTPPVLDSDGSFFLYSKLTVDKSRWQQGNVFSCSVMHEALHNHYTQKSLSLSPGGGGGSGGGGSGGGGSGQPREPQVYTLPPSREEMTKNQVSLTCLVKGFYPSDIAVEWESNGQPENNYKTTPPVLDSDGSFFLYSKLTVDKSRWQQGNVFSCSVMHEALHNHYTQKSLSLSPGSTGSEVQLQQSGPELVKPGASVKISCKTSGYTFTEYTMHWVKQSHGKSLEWIGGISPNIGGTSYNQKFKGKATLTVDKSSSTAYMELRSLTSEDSAVYYCARRGGSFDYWGQGTTLTVSSRTVAAPSVFIFPPSDEQLKSGTASVVCLLNNFYPREAKVQWKVDNALQSGNSQESVTEQDSKDSTYSLSSTLTLSKADYEKHKVYACEVTHQGLSSPVTKSFNRGEC
chain 2: DIVMTQSPATLSVTPGDRVSLSCRASQSISDYLHWYQQKSHESPRLLIKYASQSISGIPSRFSGSGSGSDFTLSINSVEPEDVGVYYCQNGHSFPLTFGAGTKLELKASTKGPSVFPLAPSSKSTSGGTAALGCLVKDYFPEPVTVSWNSGALTSGVHTFPAVLQSSGLYSLSSVVTVPSSSLGTQTYICNVNHKPSNTKVDKRVEPKSCDKTH
notes: Heterodimer; also called CD19-F11A-NKp46-3
In the test with human FcRn (Example 10), B1 yielded a Kd of 596 nM. In test [1], the Kd was 30 nM, the koff was 0.0104 s⁻¹ and the kon amounted to 339000 M⁻¹ s⁻¹.

For the origin of these results see patent publication US20240141042A1 (INNATE PHARMA, published 2024).
